# Measurements as given in US4753882A, “Urease and process for preparation thereof” (Sapporo Breweries Limited, priority 1986, dated 1988).
# B1: urease (EC 3.5.1.5) from Bacillus sp. Strain TB-90 (FERM BP-795) (Bacillus sp. TB-90) (protein)
# chain: MSFSMSRKQYADMFGPTVGDAIRLADSELFIEIEKDYTTYGDEVKFGGGKVIRDGMGQHPLATSDECVDLVLTNAIIVDYTGIYKADIGIKDGMIASIGKAGNPLLMDGVDMVIGAATEVIAAEGMIVTAGGIDAHIHFICPQQIETALASGVTTMIGGGTGPATGTNATTCTPGPWNIHRMLQAAEEFPINLGFLGKGNCSDEAPLKEQIEAGAVGLKLHEDWGSTAAAIDTCLKVADRYDVQVAIHTDTLNEGGFVEDTLKAIDGRVIHTYHTEGAGGGHAPDIIKAAGFPNILPSSTNPTRPYTINTLEEHLDMLMVCHHLDANIPEDIAFADSRIRKETIAAEDVLHDLGVFSMISSDSQAMGRVGEVIIRTWQTADKMKKQRGKLQEDNGVGDNFRVKRYIAKYTINPAIAHGIADYVGSVEVGKLADLVVWNPAFFGVKPELVLKGGMIAYSTMGDPNASIPTPQPVLYRPMFAAKGDAKYQTSITFVSKAAYEKGIHEQLGLKKKVKPVHGIRKLTKKDLILNDKTPKIDVDPQTYEVKVDGQLVTCEPAEIVPMAQRYFLF
# Substrate: NC(N)=O
# Assay: Km determination of urease by the GlDH method
# Format: biochemical, Bacillus sp. TB-90
# Conditions: other: GlDH method, 40 mM Tris-HCl buffer pH 8.0, 37° C.
# Method: A reaction solution consisting of 100 millimoles (mM) of urea, 40 mM of Tris-HCl buffer (pH 8.0), 0.86 mM of α-ketoglutaric acid, 0.31 mM of NADPH and 17.2 unit per milliliter (U/ml) of glutamate dehydrogenase (GlDH) was maintained at 37° C. Then an enzyme solution to be measured was added to the reaction solution to initiate the reaction, and a rate of decrease in absorbance at 37° C., E340 nm, was measured. All the concentrations are indicated in their final concentrations. A rate of decrease in NADPH was calculated from the rate of decrease in absorbance E340 nm, and the amount of ammonia formed by the action of urease was calculated from the rate of decrease in absorbance E340 nm.
# In connection with enzyme activity, an amount of the enzyme forming 2 micromoles (μmole) of ammonia per minute was defined as one unit (1 U). This definition was calculated based on experiments carried out under the conditions described in the aforementioned GlDH method.
# The Km value as determined under the conditions of the aforementioned GlDH method was about 0.3 mM for urea.
protein,measurement,value
B1,Km,300 µM
